Data set [1] deals with the molecule itself. Briefly: non-reducing SDS-PAGE with anti-His Western blot; culture supernatants of GS115 and KM71H cultures, induced without or with culture additives.
For data set [2], the target named is T1, human MD-2 (myeloid differentiation factor 2) (human), Q9Y6Y9.
T1 chain: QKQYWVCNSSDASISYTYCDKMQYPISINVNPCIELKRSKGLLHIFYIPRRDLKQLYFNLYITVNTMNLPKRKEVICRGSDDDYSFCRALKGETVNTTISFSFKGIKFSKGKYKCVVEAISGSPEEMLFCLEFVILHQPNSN
Briefly: SEC; nickel-purified protein on HiLoad 16/60 Superdex 200 in 50 mM sodium acetate, pH 5.0; without additive, or with the anti-aggregation additive (0.2 M MgSO4 for hMD-2) in culture medium and buffers. Conditions: remark: other sources report otherwise. (In general: Size exclusion chromatography separates by hydrodynamic size, large species first.)

B1: human MD-1 (myeloid differentiation factor 1) (natural protein, UniProt O95711 21-162, looked up)
chain: GGGGKAWPTHVVCSDSGLEVLYQSCDPLQDFGFSVEKCSKQLKSNINIRFGIILREDIKELFLDLALMSQGSSVLNFSYPICEAALPKFSFCGRRKGEQIYYAGPVNNPEFTIPQGEYQVLLELYTEKRSTVACANATIMCS
notes: A TEV cleavage site lies between the His6-tag and the protein; Secreted by the S. cerevisiae alpha factor prepro peptide; Glycoprotein; also called hMD-1; source: Pichia pastoris GS115 or KM71H (pPIC9K), secreted; not shown: His6, N-terminal, kept
In the case of B1, the binding result in data set [1] is recorded as “binds”.

B2: human MD-2 (myeloid differentiation factor 2), Q9Y6Y9 19-160 (natural protein)
chain: T1 chain
Consider B2, for which the percent monomeric (with 0.2 M MgSO4) in data set [2] was 15%.

Source of the values: paper PMC3032050, “LPS ligand and culture additives improve production of monomeric MD-1 and 2 in Pichia pastoris by decreasing aggregation and intermolecular disulfide bonding” (Protein Expression and Purification, 2011).
